# Experiments:
# [1] = molecular target: T1, human LRRC15 extracellular domain with C-terminal His tag (human, UniProt Q8TF66 22-538); assay: calculated from SPR kd, 10°C
# T1 construct: Recombinant, made in HEK293; the entry holds the extracellular domain and the His tag; SPR analyte; also called TPP-1545; hLRRC15 CT-His
# T1 sequence: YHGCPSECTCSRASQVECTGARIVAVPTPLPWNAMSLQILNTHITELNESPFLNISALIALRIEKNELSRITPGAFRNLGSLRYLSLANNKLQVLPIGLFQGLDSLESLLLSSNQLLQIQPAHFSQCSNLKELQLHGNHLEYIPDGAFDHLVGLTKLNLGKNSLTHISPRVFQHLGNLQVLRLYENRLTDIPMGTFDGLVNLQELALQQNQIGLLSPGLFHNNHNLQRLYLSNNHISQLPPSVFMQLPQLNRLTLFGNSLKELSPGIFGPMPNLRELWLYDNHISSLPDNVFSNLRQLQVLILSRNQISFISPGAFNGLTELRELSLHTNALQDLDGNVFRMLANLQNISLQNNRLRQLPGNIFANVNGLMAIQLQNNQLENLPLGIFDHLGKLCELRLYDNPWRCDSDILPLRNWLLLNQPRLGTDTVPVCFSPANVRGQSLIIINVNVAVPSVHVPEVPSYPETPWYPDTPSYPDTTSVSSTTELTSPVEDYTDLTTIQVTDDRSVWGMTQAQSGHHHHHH
# Procedure: (§1) To assess if anti-LRRC-15 antibodies show a difference in binding at different temperatures, binding assays were conducted using surface plasmon resonance (SPR). Binding assays were performed on a Biacore T200 instrument at temperatures of 10° C., 20° C., 25° C. and 37° C. with assay buffer HBS EP+, 1 mg/ml BSA (bovine serum albumine), 300 mM NaCl, 0.05% NaN₃. Antibodies were captured via anti-human Fc IgGs covalently amine coupled to a CM5 sensor chip and human LRRC15 was used as an analyte in a concentration series from 1.56-200 nM in multi cycle kinetics mode. Pre-experiments were conducted to have an equal capture level at each temperature. Obtained sensorgrams were fitted to a 1:1 Langmuir binding model to derive kinetic data.
# [2] = molecular target: T1, human LRRC15 extracellular domain with …; assay: calculated from SPR kd, 20°C
# Procedure: as §1
# [3] = molecular target: T1, human LRRC15 extracellular domain with …; assay: SPR at 10-37°C (Example 3)
# Procedure: as §1
# [4] = molecular target: T1, human LRRC15 extracellular domain with …; assay: SPR thermodynamics (van't Hoff/Eyring), 10-37°C
# Procedure: as §1, with “Thermodynamics help to explain why an interaction is happening and what the driving forces for the interaction are. To” for “To”, “the thermodynamic parameters for anti-LRRC15” for “if anti-LRRC-15”, “antibodies” for “antibodies show a difference in binding at different temperatures,”, “BSA,” for “BSA (bovine serum albumine),”, “NaN3.” for “NaN₃.”, “data. Thermodynamic parameters were obtained using the integrated thermodynamics wizard in the Biacore T200 software. Van′t Hoff and Eyring plots were calculated and plotted and thermodynamic parameters were derived.” for “data.”
# [5] = molecular target: T1, human LRRC15 extracellular domain with …; assay: SPR Biacore T200, antibody captured, LRRC15 analyte, 37°C
# Procedure: as §1
# [6] = molecular target: T2, cynomolgus (Macaca fascicularis) LRRC15 extracellular domain with C-terminal His tag (cynomolgus monkey (Macaca fascicularis), UniProt Q8TF66 22-538 (human entry)); assay: SPR Biacore T200, 25°C, antibody captured, LRRC15 analyte
# T2 construct: Recombinant, made in HEK293; the entry holds the extracellular domain and the His tag; SPR analyte; also called TPP-9046
# T2 chain: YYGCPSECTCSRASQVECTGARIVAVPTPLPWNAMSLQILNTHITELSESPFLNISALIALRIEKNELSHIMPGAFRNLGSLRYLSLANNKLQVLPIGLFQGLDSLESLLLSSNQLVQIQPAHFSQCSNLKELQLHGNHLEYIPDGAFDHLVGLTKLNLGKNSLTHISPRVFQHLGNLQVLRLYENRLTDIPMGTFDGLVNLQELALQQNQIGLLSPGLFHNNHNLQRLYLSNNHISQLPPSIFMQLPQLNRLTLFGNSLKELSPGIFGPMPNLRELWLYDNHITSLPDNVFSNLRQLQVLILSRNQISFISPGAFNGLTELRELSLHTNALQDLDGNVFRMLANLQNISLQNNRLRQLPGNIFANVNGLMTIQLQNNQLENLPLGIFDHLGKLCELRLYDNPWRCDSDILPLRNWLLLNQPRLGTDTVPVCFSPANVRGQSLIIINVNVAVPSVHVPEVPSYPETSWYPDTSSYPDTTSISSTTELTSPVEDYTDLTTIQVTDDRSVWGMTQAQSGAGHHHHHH
# Procedure: (§2) To assess the binding kinetics and affinity of anti-LRRC15 antibodies as well as their species cross-reactivity profile, binding assays were conducted using surface plasmon resonance (SPR). Binding assays were performed on a Biacore T200 instrument at 25° C. using assay buffer HBS EP+, 1 mg/ml BSA, 300 mM NaCl, 0.05% NaN3. Antibodies were captured via anti-human Fc IgGs covalently amine coupled to a CM5 sensor chip and human, mouse and cynomolgus LRRC15 were used as analytes in a concentration series from 1.56-200 nM in multi cycle kinetics mode. […] Obtained sensorgrams were fitted to a 1:1 Langmuir binding model to derive kinetic data.
# [7] = molecular target: T1, human LRRC15 extracellular domain with …; assay: as above
# Procedure: as §2
Binder,Complex Half Life [1] [h],Complex Half Life [2] [h],Temperature dependent loss in binding affinity [3] [fold],-TΔS [4] [kcal/mol],ΔG^0 [4] [kcal/mol],ΔH^0 [4] [kcal/mol],Kd [5] [nM],Kd [6] [nM],Kd [7] [nM]
"TPP-12942 (antibody, human IgG1, kappa, V domains shown, Prior art humanized IgG1 kappa antibody, used as comparator; also called huM25; huM25-hIgG1Kappa) VH: EVQLVQSGAEVKKPGASVKVSCKASGYKFSSYWIEWVKQAPGQGLEWIGEILPGSDTTNYNEKFKDRATFTSDTSINTAYMELSRLRSDDTAVYYCARDRGNYRAWFGYWGQGTLVTVSS VL: DIQMTQSPSSLSASVGDRVTITCRASQDISNYLNWYQQKPGGAVKFLIYYTSRLHSGVPSRFSGSGSGTDYTLTISSLQPEDFATYFCQQGEALPWTFGGGTKVEIKR",0.963,0.218,13.8,6.69,-10.5,-17,72,36,25
"TPP-17078 (antibody, human IgG1, kappa, V domains shown, also called 438H-M308-H05-hIgGkappa) VH: EVQLVQSGAEVKKPGASVKVSCKASGYKFSSYWIEWVKQAPGQGLEWIGEILPGSDTTNYNEKFKDRATFTSDTSINTAYMELSRLRSDDTAVYYCARDRGNYRAWFGYWGQGTLVTVSS VL: DIQMTQSPSSLSASVGDRVTITCRASQSISSYLNWYQQKPGGAPKFLIYYASSLQSGVPSRFSGSGSGTDYTLTISSLQPEDFATYYCQQGFSLPWTFGGGTKVEIKR",14.8,4.18,30.9,10.3,-12,-22.2,9.9,1.8,1.7
"TPP-17421 (antibody, human IgG1, kappa, V domains shown, also called 438H-M306-C11-hIgG1Kappa) VH: EVQLVQSGAEVKKPGASVKVSCKASGYKFSSYWIEWVKQAPGQGLEWIGEILPGSDWTNYNEKFKDRATFTSDTSINTAYMELSRLRSDDTAVYYCARDRGNYRAWFQYWGQGTLVTVSS VL: DIQMTQSPSSLSASVGDRVTITCRASQSISSYLNWYQQKPGGAPKFLIYYASSLQSGVPSRFSGSGSGTDYTLTISSLQPEDFATYYCQQGLELPWTFGGGTKVEIKR",9.63,4.48,5.2,-1.82,-12.2,-10.5,2.4,0.91,0.96
"TPP-14389 (antibody, human IgG1, kappa, V domains shown, also called 13612-rec02-hIgG1Kappa) VH: EVQLLESGGGLVQPGGSLRLSCAASGFTFSGYMMSWVRQAPGKGLEWVSGIYPSPGYTYYADSVKGRFTISRDNSKNTLYLQMNSLRAEDTAVYYCAREKASDLFGSYSEALDYWGQGTLVTVSS VL: DIQMTQSPDSLSASVGDRVTITCRASQDVGSWLAWYQQKPGKAPKLLIFAASSLESGIPSRFSGSGSGTDFTLTISSLQPEDFATYYCQQANGFPLTFGGGTKVEIKR",1.6,0.41,108,19.4,-11.2,-31.1,66,9,5.9

# From patent publication US20240108766A1 (Bayer, published 2024)
